Experiments:
[1] = target: T1, CCDC112 recombinant protein (coiled-coil domain-containing protein 112) (human) (UniProt Q8NEF3); test: ELISA, coated CCDC112, LILRB2-hFc, 0 ug/mL CCDC112 antibody; number over the bar
T1 sequence: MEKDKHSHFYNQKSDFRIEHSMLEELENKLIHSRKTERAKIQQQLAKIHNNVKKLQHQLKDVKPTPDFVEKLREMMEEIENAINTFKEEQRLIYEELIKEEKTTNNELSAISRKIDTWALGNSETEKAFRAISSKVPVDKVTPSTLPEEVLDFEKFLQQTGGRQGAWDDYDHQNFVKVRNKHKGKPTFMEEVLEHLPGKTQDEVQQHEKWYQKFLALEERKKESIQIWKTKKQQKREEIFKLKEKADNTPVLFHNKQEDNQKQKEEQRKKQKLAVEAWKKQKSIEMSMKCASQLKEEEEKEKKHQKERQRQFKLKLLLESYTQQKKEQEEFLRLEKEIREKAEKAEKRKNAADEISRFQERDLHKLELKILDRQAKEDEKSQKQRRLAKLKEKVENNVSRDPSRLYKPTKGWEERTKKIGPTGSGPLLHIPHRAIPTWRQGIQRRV

[2] = target: CCDC112 on HCT116 tumor cells (including HCT116 cells stably overexpressing CCDC112) (human) (UniProt Q8NEF3); test: flow cytometry on HCT116 cells overexpressing CCDC112; ambiguous fit of a flat control curve (see non_binding); table gives no unit, unit from the x axis

LILRB2-hFc (LILRB2 extracellular region protein fragment labeled with hFc), sequence (Q8N423 22-460): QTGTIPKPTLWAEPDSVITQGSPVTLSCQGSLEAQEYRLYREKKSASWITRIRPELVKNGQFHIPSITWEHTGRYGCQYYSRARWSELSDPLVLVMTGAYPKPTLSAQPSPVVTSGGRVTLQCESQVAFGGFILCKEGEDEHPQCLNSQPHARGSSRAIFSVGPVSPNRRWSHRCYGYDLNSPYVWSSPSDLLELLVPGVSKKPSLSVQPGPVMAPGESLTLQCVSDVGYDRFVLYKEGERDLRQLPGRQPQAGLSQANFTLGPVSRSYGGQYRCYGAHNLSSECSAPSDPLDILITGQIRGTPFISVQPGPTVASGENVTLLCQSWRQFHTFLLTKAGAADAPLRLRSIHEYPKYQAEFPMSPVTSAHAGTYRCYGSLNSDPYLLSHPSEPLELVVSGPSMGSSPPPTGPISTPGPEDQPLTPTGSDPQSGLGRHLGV

OD450 [1] [OD450] | EC50 [2] [nM] | Substance
1.58 |  | LILRB2-hFc (LILRB2 extracellular region protein fragment labeled with hFc) (from UniProt Q8N423 22-460) (Fc fusion)
 | 44.9 | mIgG1 (antibody)

Reference: patent US20240101663A1
